Reference: patent publication US7981997B2, “Growth factor which acts through ErbB-4 RTK” (Yeda Research And Development Co., priority 2000, dated 2011)

Key:
Experiment in all cases: 32D cell proliferation, 24-hour dose-response MTT assay
Type in all cases: cell-based
[1] = test system: D1 cells (32D expressing ErbB-1); conditions: 24-hour dose-response, without IL-3
Protocol: (§1) The indicated derivative lines of 32D cells were tested for cell proliferation using the [3-(4,5-dimethylthiazol-2-yl)-2,5-diphenyl]tetrazolium bromide (MTT) assay. […] The MT assay was performed 24 hours later. Results are presented as percent induction over the control untreated cells, and are the mean±S.D. of 4 determinations. Each experiment was repeated at least twice with similar findings.
(§2) The establishment of a series of interleukin 3 (IL-3)-dependent 32D myeloid cells expressing all combinations of ErbB proteins has been described (Alimandi et al., 1997; Pinkas-Kramarski et al., 1996; Shelly et al., 1998). Cells were maintained in RPMI medium with 10% fetal bovine serum (FBS) and dilute IL3-containing conditioned medium. Prior to proliferation assays, cells were washed three times in RPMI/FBS and plated (5×10^5 cells/ml; 0.1 ml/well) into 96-well flat-bottomed plates with the indicated liconcentrations or with IL-3 (1:1000 dilution of conditioned medium). Cell survival was determined 24 hours later, or after the indicated time intervals, by MTT assay, as previously described (Mosman, 1983). MTT (0.05 mg/ml) was incubated with the analyzed cells for 2 hours at 37 C. Living cells can transform the tetrazolium ring into dark blue formazan crystals, that can be quantified by reading the optical density at 540-630 nm after lysis of the cells with acidic isopropanol.
(§3) To test the prediction that the novel transcript encodes an ErbB-specific ligand, the corresponding full-length EGF-like domain (residues 4-50, FIG. 1a, SEQ ID NO:2) was synthesized, denatured and refolded to allow proper disulfide bridging. This method has been used before to synthesize functionally active derivatives of other EGF-like growth factors (Barbacci et al., 1995; Lin et. al., 1988; Shelly et al., 1998). A series of derivatives of the 32D cell line engineered to express different ErbB receptors or their combinations has been previously described (Pinkas-Kramarski et al., 1996; Shelly et al., 1998). The myeloid 32D parental cells require cytokine stimulation, such as interleukin 3 (IL3) for their growth, and were chosen because they lack endogenous ErbB expression.

[2] = test system: D12 cells (32D co-expressing ErbB-1 and ErbB-2); conditions: 24-hour dose-response
Protocol: as §1, §2, §3

[3] = test system: D13 cells; conditions: 24-hour dose-response
Protocol: as §1, §2, §3

[4] = test system: D2 cells (32D expressing ErbB-2); conditions: 24-hour dose-response, without IL-3
Protocol: as §1, §2, §3

[5] = test system: D23 cells; conditions: 24-hour dose-response
Protocol: as §1, §2, §3

[6] = test system: D24 cells (32D co-expressing ErbB-4 and ErbB-2)
Protocol: as §1, §2, §3

[7] = test system: D3 cells (32D expressing ErbB-3); conditions: 24-hour dose-response
Protocol: as §1, §2, §3

[8] = test system: D4 cells (32D expressing ErbB-4); conditions: 24-hour dose-response, in comparison to NRG-1β control
Protocol: as §1, §2, §3

B1: NRG-4: synthetic refolded mouse EGF-like domain of NRG-4 (residues 4 to 50, SEQ ID NO:2) (peptide, listed as Mus musculus)
chain: MPTDHEQPCGPRHRSFCLNGGICYVIPTIPSPFCRCIENYTGARCEEVFLPSSSIPSESNLSAAFVVLAVLLTLTIAALCFLCRKGHLQRASSVQCEISLVETNNTRTRHSHREH
mitogenic response of D1 cells [1]: did not respond
mitogenic response of D12 cells [2]: D24 cells) was the only line that responded mitogenically
mitogenic response of D13 cells [3]: D24 cells) was the only line that responded mitogenically
mitogenic response of D2 cells [4]: did not respond
mitogenic response of D23 cells [5]: D24 cells) was the only line that responded mitogenically
mitogenic response of D24 cells ([6]; 24-hour dose-response, MTT): responded mitogenically
mitogenic potency compared with NRG-1 in D24 cells ([6]; cells co-overexpressing ErbB-2 and ErbB-4): almost equipotent
mitogenic response of D3 cells [7]: did not respond
mitogenic response of D4 cells [8]: modest dose-dependent mitogenic response
